{
  "source": "patent US20200270588A1",
  "about": "“GLUCOSYL TRANSFERASE POLYPEPTIDES AND METHODS OF USE” (Syngenta Participations AG, priority 2017, published 2020)",
  "molecules": {"B1": {"name": "V116I: bx9 SEQ ID NO:1 mutant (protein)", "chain": "MASSRTGAGAGGRVVVFPFPFQGHFNPVMRLARALHARGLAITVFHSGALDPADYPADYRFVPVTVEADPKLLASEDIAAIVTTLNASCDAPFRARLSALLAAEGRDSVRCVFTDISWNAVLTASSDLGVPALGMMTASAASLRDYMAYRTLIDKGYLPVKEERKEDPVPELPPYLVKDLLRVDTSDLEEFAELLARTVTAARRASGLIFNTFPLIETDTLAEIHKALSVPVFAVAPLNKLVPTATASLHGVVQADRGCLQWLDTQQPGSVLYVSFGSMAAMDPHEFVELAWGLADSKRPFVWVVRPNLIRGFESGALPDGVEDEVRGRGIVVAWAPQEEVLAHPAVGGFLTHNGWNSTVEAISEGVPMVCCPRHGDQFGNMRYVCDVWKVGTELVGEQLERGQVKAAIDRLFGTKEGEEIKERMKEFKIAAAKGIGIGVDVDETASPRTDLTDLVDLIKSF", "modifications": "Zea mays"}, "B2": {"name": "M135T: bx9 SEQ ID NO:1 mutant (protein)", "chain": "MASSRTGAGAGGRVVVFPFPFQGHFNPVMRLARALHARGLAITVFHSGALDPADYPADYRFVPVTVEADPKLLASEDIAAIVTTLNASCDAPFRARLSALLAAEGRDSVRCVFTDVSWNAVLTASSDLGVPALGTMTASAASLRDYMAYRTLIDKGYLPVKEERKEDPVPELPPYLVKDLLRVDTSDLEEFAELLARTVTAARRASGLIFNTFPLIETDTLAEIHKALSVPVFAVAPLNKLVPTATASLHGVVQADRGCLQWLDTQQPGSVLYVSFGSMAAMDPHEFVELAWGLADSKRPFVWVVRPNLIRGFESGALPDGVEDEVRGRGIVVAWAPQEEVLAHPAVGGFLTHNGWNSTVEAISEGVPMVCCPRHGDQFGNMRYVCDVWKVGTELVGEQLERGQVKAAIDRLFGTKEGEEIKERMKEFKIAAAKGIGIGVDVDETASPRTDLTDLVDLIKSF", "modifications": "Zea mays"}, "B3": {"name": "M135L: bx9 SEQ ID NO:1 mutant (protein)", "chain": "MASSRTGAGAGGRVVVFPFPFQGHFNPVMRLARALHARGLAITVFHSGALDPADYPADYRFVPVTVEADPKLLASEDIAAIVTTLNASCDAPFRARLSALLAAEGRDSVRCVFTDVSWNAVLTASSDLGVPALGLMTASAASLRDYMAYRTLIDKGYLPVKEERKEDPVPELPPYLVKDLLRVDTSDLEEFAELLARTVTAARRASGLIFNTFPLIETDTLAEIHKALSVPVFAVAPLNKLVPTATASLHGVVQADRGCLQWLDTQQPGSVLYVSFGSMAAMDPHEFVELAWGLADSKRPFVWVVRPNLIRGFESGALPDGVEDEVRGRGIVVAWAPQEEVLAHPAVGGFLTHNGWNSTVEAISEGVPMVCCPRHGDQFGNMRYVCDVWKVGTELVGEQLERGQVKAAIDRLFGTKEGEEIKERMKEFKIAAAKGIGIGVDVDETASPRTDLTDLVDLIKSF", "modifications": "Zea mays"}, "B4": {"name": "M135C: bx9 SEQ ID NO:1 mutant (protein)", "chain": "MASSRTGAGAGGRVVVFPFPFQGHFNPVMRLARALHARGLAITVFHSGALDPADYPADYRFVPVTVEADPKLLASEDIAAIVTTLNASCDAPFRARLSALLAAEGRDSVRCVFTDVSWNAVLTASSDLGVPALGCMTASAASLRDYMAYRTLIDKGYLPVKEERKEDPVPELPPYLVKDLLRVDTSDLEEFAELLARTVTAARRASGLIFNTFPLIETDTLAEIHKALSVPVFAVAPLNKLVPTATASLHGVVQADRGCLQWLDTQQPGSVLYVSFGSMAAMDPHEFVELAWGLADSKRPFVWVVRPNLIRGFESGALPDGVEDEVRGRGIVVAWAPQEEVLAHPAVGGFLTHNGWNSTVEAISEGVPMVCCPRHGDQFGNMRYVCDVWKVGTELVGEQLERGQVKAAIDRLFGTKEGEEIKERMKEFKIAAAKGIGIGVDVDETASPRTDLTDLVDLIKSF", "modifications": "Zea mays"}},
  "experiment": "UDP luminescence plate assay of E. coli extracts, saturation mutants of SEQ ID NO: 1, herbicide V",
  "assay_type": "biochemical, Zea mays",
  "conditions": "improvement factor relative to w/t bx9 = 1.0, rounded to nearest 0.5; extract activity basis; compound V",
  "data": [
    {"molecule": "B1", "values": [
      {"measurement": "Preferred amino acid substitutions and (IF) based on RLU/min/ul", "value": "L,I(1.0)"}
    ]},
    {"molecule": "B2", "values": [
      {"measurement": "Preferred amino acid substitutions and (IF) based on RLU/min/ul", "value": "T,C,L(1.0)"}
    ]},
    {"molecule": "B3", "values": [
      {"measurement": "Preferred amino acid substitutions and (IF) based on RLU/min/ul", "value": "T,C,L(1.0)"}
    ]},
    {"molecule": "B4", "values": [
      {"measurement": "Preferred amino acid substitutions and (IF) based on RLU/min/ul", "value": "T,C,L(1.0)"}
    ]}
  ]
}
